doi:10.1101/2024.04.26.590571 (bioRxiv, 2024)

Target: the molecule itself
Experiment: cryo-EM structure

B1: L-protein (BchL homodimer), electron donor component of Rhodobacter sphaeroides DPOR (enzyme)
chain: MSPKDLTIPTGADGEGSVQVHLDEADKITGAKVFAVYGKGGIGKSTTSSNLSAAFSILGKRVLQIGCDPKHDSTFTLTGSLVPTVIDVLKDVDFHPEELRPEDFVFEGFNGVMCVEAGGPPAGTGCGGYVVGQTVKLLKQHHLLDDTDVVIFDVLGDVVCGGFAAPLQHADQAVVVTANDFDSIYAMNRIIAAVQAKSKNYKVRLAGCVANRSRATDEVDRFCKETNFRRLAHMPDLDAIRRSRLKKKTLFEMDEDQDVLAARAEYIRLAESLWRGLDPIDPHSLPDRDIFELLGFD
  stoichiometry N: 2
